Source: US20200171174A1 (Astellas, published 2020)
Changes are numbered by the printed parent chain.

B1: P10-2 Fab (Fab, V domains shown)
VH: QVQLVQSGAEVKKPGASVKVSCKASGYTFTNYGLSWVRQAPGQGLEWMGENHPGSGIIYHNEKFRGRVTLTADRSTSTAYMELSSLRSEDTAVYYCARSSGTRGFDYWGQGTLVTVSS
VL: DVVMTQTPLSLSVTPGQPASISCRSSQSIVHSNGNTYLEWYLQKPGQSPQLLIYRVSNRFSGVPDRFSGSGSGTDFTLKISRVEAEDVGVYYCFQGSHGPWTFGQGTKLEIKR
modifications: heavy chain N-terminal glutamine modified into pyroglutamic acid in a great majority of purified antibodies
notes: expressed in Expi293F cells, purified on KappaSelect; also called anti-human MUC1 antibody Fab fragment P10-2
B2: P10-1 Fab (Fab, V domains shown)
VH: B1 VH with D106A
VL: B1 VL
notes: expressed in Expi293F cells, purified on KappaSelect; also called anti-human MUC1 antibody Fab fragment P10-1

Molecular target: T1, human cancer-specific MUC1 (human, UniProt P15941 24-1255)
T1 construct: whole, on cells; Endogenous MUC1 with cancer-specific incomplete O-glycosylation on cancer cells; also called Mucin 1; human MUC1
Assay: Cell ELISA on formalin-fixed T-47D cells, HRP anti-human Ig kappa, luminescence
Procedure: Specifically, breast cancer cell line T-47D cells (purchasable from ATCC; HTB-133) expressing human cancer-specific MUC1 were inoculated at 0.75×10⁴ cells per well to a 96-well ELISA plate coated with collagen I, and cultured overnight. […] Then, a horseradish peroxidase (HRP)-labeled goat anti-human Igκ antibody (Southern Biotechnology Associates, Inc.) was reacted as a secondary antibody. ECL Prime Western Blotting Detection Reagent (GE Healthcare Japan Corp.) was added thereto for luminescence, and the degree of the luminescence was examined.

| Binder | binding activity relative to 1B2 Fab |
| --- | --- |
| B1 | ≥ 10 times |
| B2 | ≥ 10 times |
